Here are results for ten molecules from publication PMC6006248, “CARK1 mediates ABA signaling by phosphorylation of ABA receptors” (Cell Discovery, 2018).

B1: ABI1 (Clade A PP2C) (enzyme)
chain: MEEVSPAIAGPFRPFSETQMDFTGIRLGKGYCNNQYSNQDSENGDLMVSLPETSSCSVSGSHGSESRKVLISRINSPNLNMKESAAADIVVVDISAGDEINGSDITSEKKMISRTESRSLFEFKSVPLYGFTSICGRRPEMEDAVSTIPRFLQSSSGSMLDGRFDPQSAAHFFGVYDGHGGSQVANYCRERMHLALAEEIAKEKPMLCDGDTWLEKWKKALFNSFLRVDSEIESVAPETVGSTSVVAVVFPSHIFVANCGDSRAVLCRGKTALPLSVDHKPDREDEAARIEAAGGKVIQWNGARVFGVLAMSRSIGDRYLKPSIIPDPEVTAVKRVKEDDCLILASDGVWDVMTDEEACEMARKRILLWHKKNAVAGDASLLADERRKEGKDPAAMSAAEYLSKLAIQRGSKDNISVVVVDLKPRRKLKSKPLN
B2: wild-type RCAR3 (purified, SPR and phosphatase assay) (receptor, Arabidopsis, UniProt Q9FGM1 1-188, looked up)
chain: MEANGIENLTNPNQEREFIRRHHKHELVDNQCSSTLVKHINAPVHIVWSLVRRFDQPQKYKPFISRCVVKGNMEIGTVREVDVKSGLPATRSTERLELLDDNEHILSIRIVGGDHRLKNYSSIISLHPETIEGRIGTLVIESFVVDVPEGNTKDETCYFVEALIKCNLKSLADISERLAVQDTTESRV
notes: ABA receptor RCAR3 (PYL8), Arabidopsis; a His-tagged RCAR3 is named for the in-gel kinase assay; also called PYL8; source: purified with the similar procedures as described for CARK1-KD
B3: RCAR3^T77D (phosphor-mimic form of RCAR3) (receptor, Arabidopsis, UniProt Q9FGM1 1-188, looked up)
chain: B2 chain with T77D
notes: ABA receptor RCAR3 (PYL8), Arabidopsis, with T77D; source: purified with the similar procedures as described for CARK1-KD
B4: GST-tagged RCAR3 (receptor, Arabidopsis, UniProt Q9FGM1 1-188, looked up)
chain: B2 chain
notes: ABA receptor RCAR3 (PYL8), Arabidopsis, cDNA cloned into pGEX-6P-1; Details are in the Supplementary Information; also called PYL8; source: E. coli, purified (similar procedures as for CARK1-KD)
B5: RCAR3^S85R (interface point mutant) (receptor, Arabidopsis, UniProt Q9FGM1 1-188, looked up)
chain: B2 chain with S85R
notes: ABA receptor RCAR3 (PYL8), Arabidopsis, with S85R; source: purified with the similar procedures as described for CARK1-KD
B6: RCAR3^T77A (receptor, Arabidopsis, UniProt Q9FGM1 1-188, looked up)
chain: B2 chain with T77A
notes: ABA receptor RCAR3 (PYL8), Arabidopsis, with T77A; source: purified with the similar procedures as described for CARK1-KD
B7: GST-tagged RCAR11 (receptor, Arabidopsis, UniProt O49686 1-191, looked up)
chain: MPSELTPEERSELKNSIAEFHTYQLDPGSCSSLHAQRIHAPPELVWSIVRRFDKPQTYKHFIKSCSVEQNFEMRVGCTRDVIVISGLPANTSTERLDILDDERRVTGFSIIGGEHRLTNYKSVTTVHRFEKENRIWTVVLESYVVDMPEGNSEDDTRMFADTVVKLNLQKLATVAEAMARNSGDGSGSQVT
notes: ABA receptor RCAR11 (PYR1), Arabidopsis, cDNA cloned into pGEX-6P-1; Details are in the Supplementary Information; also called PYR1; source: E. coli, purified (similar procedures as for CARK1-KD)

For one assay, the target named is T1, RCAR11 (PYR1) with ABI1 (Arabidopsis thaliana, UniProt O49686).
T1 construct: recombinant receptor plus ABI1 phosphatase; tags and borders for this assay only in supplement; receptor dimeric; with Protein phosphatase 2C 56
T1 sequence (O49686 1-191): B7 chain
T1 sequence (P49597 1-434 partner): B1 chain
Description: in vitro Ser/Thr phosphatase assay of ABI1. Type of assay: biochemical. The note with it: read-out is receptor-dependent inhibition of ABI1.

In a further assay the target is T2, RCAR3 (PYL8) with ABI1 (Arabidopsis thaliana, UniProt Q9FGM1).
T2 construct: recombinant receptor plus ABI1 phosphatase; tags and borders for this assay only in supplement; receptor monomeric; with Protein phosphatase 2C 56
T2 sequence (Q9FGM1 1-188): B2 chain
T2 sequence (P49597 1-434 partner): B1 chain
Nature of the assay: in vitro Ser/Thr phosphatase assay of ABI1. Type of assay: biochemical. The note with it: read-out is receptor-dependent inhibition of ABI1.

For assay [1], the target named is ABI1 (Clade A PP2C) (Arabidopsis) (UniProt P49597).
In another assay the target is T3, CARK1-KD (Arabidopsis thaliana, UniProt Q9LUT0).
T3 construct: kinase domain, residues 50-353, 6xHis fusion (pET28a), E. coli Rosetta (DE3)
T3 sequence (Q9LUT0 50-353): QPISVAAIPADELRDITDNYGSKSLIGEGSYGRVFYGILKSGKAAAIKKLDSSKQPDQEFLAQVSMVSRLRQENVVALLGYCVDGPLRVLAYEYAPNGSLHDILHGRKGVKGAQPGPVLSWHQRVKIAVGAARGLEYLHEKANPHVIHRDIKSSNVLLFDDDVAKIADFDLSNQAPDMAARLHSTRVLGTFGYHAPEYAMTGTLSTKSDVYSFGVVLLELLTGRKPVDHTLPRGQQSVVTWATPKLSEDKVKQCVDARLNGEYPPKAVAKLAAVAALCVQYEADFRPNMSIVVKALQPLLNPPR
Description: in vitro kinase assay, […] autoradiography. Type of assay: biochemical. As to conditions: labelled compound; autophosphorylation and phosphorylation of RCAR3/RCAR11.

Assay [2] concerns the target T4, RCAR3^T77D (phosphor-mimic form of RCAR3) (Arabidopsis, UniProt Q9FGM1 1-188, T77D).
T4 sequence: B2 chain with T77D
Description: SPR. On the technique in general: Surface plasmon resonance follows binding to a sensor surface in real time, without labels.

The target of the next assay is T5, RCAR3^T77A (Arabidopsis, UniProt Q9FGM1 1-188, T77A).
T5 sequence: B2 chain with T77A
Description: SPR.

The target of assay [3] is T6, RCAR3^S85R (interface point mutant) (Arabidopsis, UniProt Q9FGM1 1-188, S85R).
T6 sequence: B2 chain with S85R
Description: SPR.

In assay [4] the target is B1. Description: SPR.
The target of assay [5] is T7, ABI1 (Clade A PP2C) (Arabidopsis, UniProt P49597 1-434).
T7 construct: Protein phosphatase 2C ABI1, Arabidopsis; source: purified with the similar procedures as described for CARK1-KD
T7 sequence (looked up): B1 chain
Description: SPR; in vitro; who was immobilised and the conditions are not told in the main text (Supplementary Fig. S7A-E). The note with it: both partners purified.

The target in assay [6] is T8, His-tagged CARK1-KD (kinase domain of CARK1, residues 50-353) (Arabidopsis, UniProt Q9LUT0 50-353).
T8 construct: CARK1 (At3g17410), Arabidopsis, kinase domain, residues 50-353; Cloned into pET28a for the pull-down; details of the purification are in the Supplementary Information; source: E. coli Rosetta (DE3), purified
T8 sequence (looked up): T3 sequence (Q9LUT0 50-353)
Nature of the assay: pull-down; GST pull-down; His-tagged CARK1-KD or CARK1-KD^N204A (50, 100 and 200 μg) incubated with 100 μg of GST-tagged RCAR3 or RCAR11; SDS-PAGE and immunoblot. As to conditions: both partners purified. (A western blot detects proteins with antibodies after separation by electrophoresis.)

Residue numbers refer to the chain shown, from its start. Names may count otherwise.

With `CC1=CC(=O)CC(C)(C)[C@@]1(O)/C=C/C(C)=C\C(=O)O` [ABA], the “in vitro Ser/Thr phosphatase assay of ABI1” value at RCAR11 (PYR1) with ABI1 and at RCAR3 (PYL8) with ABI1 was “phosphatase activity of ABI1 was totally abolished by either forms of RCAR3/RCAR11” throughout.
Take “RCAR11^T78D (phosphor-mimic form of RCAR11) (from UniProt O49686 1-191) (receptor)”: in assay [1], the phosphatase activity of ABI1 in vitro, without ABA: inhibitory effect amounted to 28%.
On to `Nc1ncnc2c1ncn2[C@@H]1O[C@H](COP(=O)(O)OP(=O)(O)OP(=O)(O)O)[C@@H](O)[C@H]1O` [ATP], for which the “in vitro kinase assay, 32P autoradiography” value at CARK1-KD is on record as “wild-type CARK1-KD showed strong autophosphorylation activity”.
Broadly, the koff is the rate constant with which the complex falls apart. A high value points to fast dissociation. Consider B1, for which the off-rate (koff) in assay [2] was 0.000867 s⁻¹; with RCAR3^T77A, 0.0046 s⁻¹; in assay [3], 0.00676 s⁻¹.
For orientation: Kd means a measure of binding affinity in units of concentration. B2: the koff in the assay with ABI1 (Clade A PP2C) [4] amounted to 0.000822 s⁻¹. In the assay with ABI1 (Clade A PP2C) [5], the Kd was determined as 0.88 µM.
Molecule B3 returned a Kd in the assay with ABI1 (Clade A PP2C) [5] of about 0.2 µM.
In the case of B4, the binding result in assay [6] is on record as “binds”.
As for B5, the Kd in the assay with ABI1 (Clade A PP2C) [5] turned out to be 11.3 µM.
On the same count and under the same terms, for B6 the value was about 6.4 µM.
Turning to B7, the binding result in assay [6] was “binds”.
